Results on 18 compounds are retold here after paper PMC6071684, “Defining the hydrophobic interactions that drive competence stimulating peptide (CSP)-ComD binding in Streptococcus pneumoniae” (Beilstein Journal of Organic Chemistry, 2018).

pEC50: −log10 of the molar value. Where a SMILES comes first, the peptide text is derived from it. Where no end group is shown, it is not given here. [ ]: non-standard residue; d: D form. Nva = CCC[C@H](N)C(=O)O

One experiment addresses ComD2 receptor (Streptococcus pneumoniae serotype 4, UniProt A0A0H2US84). The experiment can be described thus: cell-based. The following applies: for ComD2 primary agonism screening: low induction, EC50 not determined: TIGR4pcomX::lacZ, 10 µM peptide, only analogs with greater than 75% activation compared to CSP2 were taken to EC50. How it is done: (§1) To assess QS modulation, we utilized the β-gal reporter strains, constructed by Lau and co-worker. In these strains the lacZ gene is under the control of QS (pcomX). Thus, upon QS activation, ComE will bind pcomX and transcribe lacZ (in addition to upregulation of ComX). ComD modulation can therefore be quantified by measuring β-gal activity. The peptides were first screened for their ability to activate/inhibit the ComD1 and ComD2 receptors at high concentration (10 µM).
(§2) To examine the ability of the synthesized CSP analogs to modulate the ComD receptors, and thus the QS circuit in S. pneumoniae, β-galactosidase assays were performed using D39pcomX::lacZ (group I) and TIGR4pcomX::lacZ (group II) reporter strains as described in [19].
(§3) Bacterial growth conditions. Bacteria from a freezer stock were grown as described in [19]. Briefly, the bacteria were streaked into a THY agar plate supplemented with 5% donor horse serum and chloramphenicol at a final concentration of 4 µg/mL. The plate was incubated for 8 h in a CO2 incubator (37 °C with 5% CO2). Fresh colonies (single colony for D39pcomX::lacZ; multiple colonies for TIGR4pcomX::lacZ) were picked into sterilized cultural tubes containing 5 mL of THY broth supplemented with chloramphenicol at a final concentration of 4 µg/mL and the cultures were incubated in a CO2 incubator overnight (15 h). Overnight cultures were then diluted (1:50 for D39pcomX::lacZ; 1:10 for TIGR4pcomX::lacZ) with THY and the resulting solution was incubated in a CO2 incubator for 3–4 hours, until the bacteria reached early exponential stage (0.30–0.35 for D39pcomX::lacZ; 0.20–0.25 for TIGR4pcomX::lacZ) as determined by using a plate reader.
(§4) β-Galactosidase assay. Activation assays. […] Briefly, an initial activation screening was performed at high concentration (10 µM) for all CSP analogs. 2 µL of 1 mM solution of CSP analogs in dimethyl sulfoxide (DMSO) were added in triplicate to a clear 96-well microtiter plate. […] 2 µL of DMSO was added in triplicate and served as the negative control for both groups. Then, 198 µL of bacterial culture was added to each well containing CSP and analogs, the plate was incubated at 37 °C for 30 minutes, and the OD600nm was measured. In order to measure the β-galactosidase activity in the pneumococcal culture, the cells were lysed by incubating the culture for 30 minutes at 37 °C with 20 µL of 0.1% Triton X-100. In a new plate, 100 µL of Z-buffer solution (60.2 mM Na2HPO4, 45.8 mM NaH2PO4, 10 mM KCl, and 1.0 mM MgSO4 in 18 MΩ H2O; pH was adjusted to 7.0 and the buffer was sterilized before use) containing 2-nitrophenyl-β-D-galactopyranoside (ONPG) at a final concentration of 0.4 mg/mL was added, followed by 100 µL of lysate, and the plate was incubated for 3 hours at 37 °C. The reaction was stopped by adding 50 µL of 1 M sodium carbonate solution, and the OD420nm and OD550nm were measured using a plate reader. […] For calculation of Miller units, please see data analysis below.
(§5) Analysis of activation/inhibition data. Miller units were calculated using the following formula: […]
(§6) Abs420 is the absorbance of ortho-nitrophenol (ONP). Abs550 is the scatter from cell debris, which, when multiplied by 1.75 approximates the scatter observed at 420 nm. t is the duration of incubation with ONPG in minutes, v is volume of lysate in milliliters, and Abs600 reflects cell density.

The next experiment has as its target ComD1 receptor (Streptococcus pneumoniae serotype 2, UniProt A0A0H2ZM50). Put plainly: cell-based. How it is done: as §1, §2, §3, §4, §5, §6
Experiment [1] addresses ComD2 receptor (S. pneumoniae (endogenous in TIGR4pcomX::lacZ)).
Experiment [2] concerns the target ComD1 receptor (S. pneumoniae (endogenous in D39pcomX::lacZ)).

Usually pEC50 stands for the negative decadic logarithm of the EC50, by convention in mol/L.

Chain of ComD1 receptor (A0A0H2ZM50 entry or part of it): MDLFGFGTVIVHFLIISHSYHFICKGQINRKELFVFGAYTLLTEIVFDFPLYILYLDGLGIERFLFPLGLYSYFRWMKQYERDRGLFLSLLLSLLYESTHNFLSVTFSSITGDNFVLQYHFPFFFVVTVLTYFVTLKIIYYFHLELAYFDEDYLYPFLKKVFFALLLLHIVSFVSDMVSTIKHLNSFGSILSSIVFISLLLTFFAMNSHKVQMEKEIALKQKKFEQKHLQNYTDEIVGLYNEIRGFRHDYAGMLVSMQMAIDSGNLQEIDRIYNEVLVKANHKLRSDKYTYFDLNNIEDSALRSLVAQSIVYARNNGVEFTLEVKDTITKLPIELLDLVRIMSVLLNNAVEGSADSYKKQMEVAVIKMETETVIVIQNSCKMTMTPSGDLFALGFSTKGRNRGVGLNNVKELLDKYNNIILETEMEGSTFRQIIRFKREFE
Chain of ComD2 receptor (A0A0H2US84 entry or part of it): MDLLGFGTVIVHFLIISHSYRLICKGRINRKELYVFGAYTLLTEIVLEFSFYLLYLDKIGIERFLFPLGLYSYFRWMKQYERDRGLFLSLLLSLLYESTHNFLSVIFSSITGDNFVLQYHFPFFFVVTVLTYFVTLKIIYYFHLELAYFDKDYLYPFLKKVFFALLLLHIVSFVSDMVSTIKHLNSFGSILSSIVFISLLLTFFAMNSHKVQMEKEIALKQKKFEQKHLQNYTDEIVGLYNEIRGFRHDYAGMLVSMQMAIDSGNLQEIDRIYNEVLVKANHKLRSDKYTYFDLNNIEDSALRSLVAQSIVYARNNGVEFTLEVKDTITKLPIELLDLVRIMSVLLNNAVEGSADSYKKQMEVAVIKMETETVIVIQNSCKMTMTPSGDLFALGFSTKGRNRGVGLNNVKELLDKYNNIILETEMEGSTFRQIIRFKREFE

With `CCC[C@H](NC(=O)[C@H](CCCNC(=N)N)NC(=O)[C@H](CCSC)NC(=O)[C@@H](N)CCC(=O)O)C(=O)N[C@@H](CO)C(=O)N[C@@H](CCCCN)C(=O)N[C@@H](Cc1ccccc1)C(=O)N[C@@H](Cc1ccccc1)C(=O)N[C@@H](CCCNC(=N)N)C(=O)N[C@@H](CC(=O)O)C(=O)N[C@@H](Cc1ccccc1)C(=O)N[C@H](C(=O)N[C@@H](CC(C)C)C(=O)N[C@@H](CCC(N)=O)C(=O)N[C@@H](CCCNC(=N)N)C(=O)N[C@@H](CCCCN)C(=O)N[C@@H](CCCCN)C(=O)O)[C@@H](C)CC` [CSP1-L4NV] (H-EMR[Nva]SKFFRDFILQRKK-OH; N-terminus assumed), the pEC50 is 6.20 on ComD2 receptor and 8.24 on ComD1 receptor.
Taken in the same sequence, the figures for `CCCC[C@H](NC(=O)[C@@H](NC(=O)[C@H](Cc1ccccc1)NC(=O)[C@H](CC(=O)O)NC(=O)[C@H](CCCNC(=N)N)NC(=O)[C@H](Cc1ccccc1)NC(=O)[C@H](Cc1ccccc1)NC(=O)[C@H](CCCCN)NC(=O)[C@H](CO)NC(=O)[C@H](CC(C)C)NC(=O)[C@H](CCCNC(=N)N)NC(=O)[C@H](CCSC)NC(=O)[C@@H](N)CCC(=O)O)[C@@H](C)CC)C(=O)N[C@@H](CCC(N)=O)C(=O)N[C@@H](CCCNC(=N)N)C(=O)N[C@@H](CCCCN)C(=O)N[C@@H](CCCCN)C(=O)O` [CSP1-L13NL] were less than 6.00 and 7.73.
Taken in the same sequence, the figures for `CCC[C@H](NC(=O)[C@@H](NC(=O)[C@H](Cc1ccccc1)NC(=O)[C@H](CC(=O)O)NC(=O)[C@H](CCCNC(=N)N)NC(=O)[C@H](Cc1ccccc1)NC(=O)[C@H](Cc1ccccc1)NC(=O)[C@H](CCCCN)NC(=O)[C@H](CO)NC(=O)[C@H](CC(C)C)NC(=O)[C@H](CCCNC(=N)N)NC(=O)[C@H](CCSC)NC(=O)[C@@H](N)CCC(=O)O)[C@@H](C)CC)C(=O)N[C@@H](CCC(N)=O)C(=O)N[C@@H](CCCNC(=N)N)C(=O)N[C@@H](CCCCN)C(=O)N[C@@H](CCCCN)C(=O)O` [CSP1-L13NV] (H-EMRLSKFFRDFI[Nva]QRKK-OH; N-terminus assumed) were less than 6.00 and 7.82.
CSP1-F7HF (peptide) displayed an EC50 of activation of pcomX::lacZ (β-galactosidase) in reporter strain TIGR4pcomX::lacZ (group II, ComD2) in experiment [1] of 317 nM. This compound also came in with an EC50 of activation of pcomX::lacZ (β-galactosidase) in reporter strain D39pcomX::lacZ (group I, ComD1) in experiment [2] of 81.7 nM.
Taken in the same sequence, the figures for CSP1-F8HF (peptide) were greater than 1000 nM and 43.4 nM.
Taken in the same sequence, the figures for CSP1-I12L (peptide) were 537 nM and 8.56 nM.
Taken in the same sequence, the figures for CSP1-I12NL (peptide) were greater than 1000 nM and 6.68 nM.
In the case of CSP1-I12NV (peptide), in experiment [1], the EC50 of activation of pcomX::lacZ (β-galactosidase) in reporter strain TIGR4pcomX::lacZ (group II, ComD2) stood at 853 nM. Also, in experiment [2], the EC50 of activation of pcomX::lacZ (β-galactosidase) in reporter strain D39pcomX::lacZ (group I, ComD1) came out at 13.8 nM.
Taken in the same sequence, the figures for CSP1-L4I (peptide) were greater than 1000 nM and 10.2 nM.
CSP1-L4NL (peptide) displayed an EC50 of activation of pcomX::lacZ (β-galactosidase) in reporter strain TIGR4pcomX::lacZ (group II, ComD2) in experiment [1] greater than 1000 nM. For the same compound, the EC50 of activation of pcomX::lacZ (β-galactosidase) in reporter strain D39pcomX::lacZ (group I, ComD1) in experiment [2] was 13.5 nM.
Taken in the same sequence, the figures for CSP1-L4NV (peptide) were 627 nM and 5.74 nM.
Take CSP1-L13I (peptide): the EC50 of activation of pcomX::lacZ (β-galactosidase) in reporter strain TIGR4pcomX::lacZ (group II, ComD2) in experiment [1] was found to be 705 nM. For the same compound, the EC50 of activation of pcomX::lacZ (β-galactosidase) in reporter strain D39pcomX::lacZ (group I, ComD1) in experiment [2] came out at 9.12 nM.
Taken in the same sequence, the figures for CSP1-L13NL (peptide) were greater than 1000 nM and 18.6 nM.
CSP1-L13NV (peptide) showed an EC50 of activation of pcomX::lacZ (β-galactosidase) in reporter strain TIGR4pcomX::lacZ (group II, ComD2) in experiment [1] greater than 1000 nM. The compound also displayed an EC50 of activation of pcomX::lacZ (β-galactosidase) in reporter strain D39pcomX::lacZ (group I, ComD1) in experiment [2] of 15.2 nM.
As for EMRISKFFRDFILQRKK-OH [CSP1-L4I], the figures for the pEC50 at ComD2 receptor and on ComD1 receptor were less than 6.00 and 7.99, respectively.
In the case of EMRLSKFYRDFILQRKK-OH [CSP1-F8Y], the “ComD2 primary agonism screening: low induction, EC50 not determined” value at ComD2 receptor is “–^e”. On ComD1 receptor, this compound gave a pEC50 of 7.07.
Taken in the same sequence, the figures for EMRLSKYFRDFILQRKK-OH [CSP1-F7Y] were “–^e” and 6.46.
In the case of EMRVSKFFRDFILQRKK-OH [CSP1-L4V], the “ComD2 primary agonism screening: low induction, EC50 not determined” value on ComD2 receptor is on record as “–^e”. Further, the pEC50 on ComD1 receptor was 6.95.
